These results are taken from paper PMC11661173 (bioRxiv, 2025).

One test has as its target T1, Recombinant AR-LBD (human, UniProt P10275 672-920).
T1 sequence (looked up): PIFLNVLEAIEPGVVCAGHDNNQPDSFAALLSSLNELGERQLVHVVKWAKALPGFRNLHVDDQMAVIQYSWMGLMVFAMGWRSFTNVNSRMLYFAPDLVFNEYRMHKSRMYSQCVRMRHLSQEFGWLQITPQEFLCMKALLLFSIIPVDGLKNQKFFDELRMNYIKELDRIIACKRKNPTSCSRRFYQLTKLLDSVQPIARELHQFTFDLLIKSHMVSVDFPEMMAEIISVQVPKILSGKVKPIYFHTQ
As to the kind of experiment: SPR. Background: SPR reads the build-up and loss of mass on a sensor chip optically.

The next test concerns the target T2, Recombinant ERα-LBD (human, UniProt P03372 302-595).
T2 sequence (looked up): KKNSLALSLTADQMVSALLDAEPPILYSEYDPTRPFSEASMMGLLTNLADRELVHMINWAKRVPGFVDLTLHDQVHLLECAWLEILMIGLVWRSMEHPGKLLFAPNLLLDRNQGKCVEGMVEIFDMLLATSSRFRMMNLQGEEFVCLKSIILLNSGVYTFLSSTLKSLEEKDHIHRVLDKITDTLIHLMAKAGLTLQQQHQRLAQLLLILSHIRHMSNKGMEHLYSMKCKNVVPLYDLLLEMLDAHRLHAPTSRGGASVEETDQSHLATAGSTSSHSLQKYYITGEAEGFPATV
Put plainly: SPR.

Regarding KPEWPAAELLLSLLGRLLVHQFSNKSTE [human NIPBL-C2^WT peptide], the binding result with Recombinant AR-LBD and in the test with Recombinant ERα-LBD was “binds” in each case.
